This test concerns mouse splenocytes. Briefly: IFN-γ production by ELISA after stimulating mouse splenocytes with IL-12 containing conditioned media. The test is classed as cell-based. The conditions noted are these: summary, compared with commercial IL-12. As for the experimental part: Functionality of mIL-12 was examined by incubating mouse splenocytes with mIL-12 and measuring INF-γ. About 2×10^6 mouse splenocytes were stimulated with either commercial recombinant mouse IL-12 (rIL-12) or the CM from mIL-12 retroviral vector transduced and stably expressing A375 cells for 48 hours. Following stimulation, the CM from each culture was collected and measured for IFN-γ production by ELISA (FIG. 5).
Next, CT26, murine colorectal carcinoma cell line was transduced with the mIL-12 retroviral vector and examined whether or not secreted mIL-12 can produce IFN-γ and activate inflammatory genes from immune cells. About 2×10^6 mouse splenocytes were stimulated with either commercial rIL-12 or the CM from mIL-12 expressing CT26 cells at the concentration of 2 ng/mL for 48 hours. Following stimulation, the supernatant and cells from each group were collected and analyzed for the production of IFN-γ via ELISA and the expression of inflammatory genes via qPCR. […] Some preliminary animal studies were performed by implanting 1.5×10^5 CT26 cells stably expressing luciferase gene or CT26 cells stably expressing luciferase and mIL-12 gene from the retroviral vector cells into the right shoulder flank. […] Bio-luminescence images of animals implanted with either CT26 expressing luciferase or luciferase and mIL-12 tumor cells are shown in FIG. 12. […]
(ELISA stands for enzyme-linked immunosorbent assay.)

The values that follow come from patent publication US12234475B2, “Compositions and methods for therapeutic delivery” (GenVivo, Inc., priority 2021, dated 2025).

B1: mIL-12: mouse IL-12 heterodimer of P40 and P35 secreted by cells transduced with the mIL-12 retroviral vector (protein, UniProt P43432 23-335; P43431 23-215, looked up)
Interleukin-12 subunit beta: MWELEKDVYVVEVDWTPDAPGETVNLTCDTPEEDDITWTSDQRHGVIGSGKTLTITVKEFLDAGQYTCHKGGETLSHSHLLLHKKENGIWSTEILKNFKNKTFLKCEAPNYSGRFTCSWLVQRNMDLKFNIKSSSSSPDSRAVTCGMASLSAEKVTLDQRDYEKYSVSCQEDVTCPTAEETLPIELALEARQQNKYENYSTSFFIRDIIKPDPPKNLQMKPLKNSQVEVSWEYPDSWSTPHSYFSLKFFVRIQRKKEKMKETEEGCNQKGAFLVEKTSTEVQCKGGNVCVQAQDRYYNSSCSKWACVPCRVRS
Interleukin-12 subunit alpha: RVIPVSGPARCLSQSRNLLKTTDDMVKTAREKLKHYSCTAEDIDHEDITRDQTSTLKTCLPLELHKNESCLATRETSSTTRGSCLPPQKTSLMMTLCLGSIYEDLKMYQTEFQAINAALQNHNHQQIILDKGMLVAIDELMQSLNHNGETLRQKPPVGEADPYRVKMKLCILLHAFSTRVVTINRVMGYLSSA
As to B1, the “T-cell activation and IFN-γ production in vitro” value is “as functionally effective as commercial IL-12”.
